Experimental data published in patent US20240043521A1 (ARXX THERAPEUTICS, published 2024).

T1: human FcγRIIa-H (the high-affinity H131 variant) on Jurkat reporter cells (human, UniProt P12318 34-317)
T1 sequence (looked up): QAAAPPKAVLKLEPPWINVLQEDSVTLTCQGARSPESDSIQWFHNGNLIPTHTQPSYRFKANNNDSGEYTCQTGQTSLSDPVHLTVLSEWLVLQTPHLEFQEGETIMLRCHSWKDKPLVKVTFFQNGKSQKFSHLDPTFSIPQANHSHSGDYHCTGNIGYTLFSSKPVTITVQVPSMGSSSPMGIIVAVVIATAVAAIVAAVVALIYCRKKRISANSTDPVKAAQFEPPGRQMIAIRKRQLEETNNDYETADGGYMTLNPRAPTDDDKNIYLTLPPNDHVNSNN

T2: A8 (lane under "Human S100 Proteins")
T2 construct: also called human S100A8
T2 chain: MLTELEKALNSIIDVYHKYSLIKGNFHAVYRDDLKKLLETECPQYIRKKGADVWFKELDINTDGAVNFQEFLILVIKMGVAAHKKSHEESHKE


Columns and labels:
[1] = target: T1, human FcγRIIa-H (the high-affinity H131 …); experiment: cell-based or functional assay
human S100A4 dimer = target: T3, human S100A4 dimer (Homo sapiens, UniProt P26447 1-101); experiment: SPR, Biacore T200, 25 C; S100A4 captured via anti-His, antibody as analyte (0.78-200 nM), 1:1 fit
T3 construct: In the SPR it was captured on an anti-His surface, so it carried a His tag; also called recombinant human S100A4 dimer
Protocol: Quantitative, kinetic analysis of the interactions between 14 humanized antibodies and 2 control antibodies with the human S100A4 dimer were performed using surface plasmon resonance (SPR).
The analysis was performed using a Biacore T200 instrument, at 25° C. analysis temperature, at a flow rate of 50 μl/min for quantitative kinetic interaction analyses.

[2] = target: A6 (lane under "Human S100 Proteins") (Homo sapiens, UniProt P06703); experiment: Western blot on human S100 proteins
[3] = target: T2, A8 (lane under "Human S100 Proteins"); experiment: Western blot on human S100 proteins

T3 sequence (P26447 whole entry, one chain of several): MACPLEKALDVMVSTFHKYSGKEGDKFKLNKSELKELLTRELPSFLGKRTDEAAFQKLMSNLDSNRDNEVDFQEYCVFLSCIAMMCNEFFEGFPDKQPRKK

Row | Binder | FcγRIIa-H ADCP reporter; fold higher activation than AX-202 hIgG4, immune complex with S100A4 dimer [1] [fold] | FcγRIIa-H ADCP reporter; fold higher activation than AX-202 hIgG4, immune complex with S100A4 multimer [1] [fold] | Kd (human S100A4 dimer) [nM] | koff (human S100A4 dimer) [s⁻¹] | kon (human S100A4 dimer) [M⁻¹ s⁻¹] | binding result [2] | binding result [3] | FcγRIIa-H ADCP reporter; potency to induce FcγR activation against the same antibody with a human IgG1 scaffold [1] [fold lower]
1 | VH1 VL3 (antibody, V domains shown, Humanized antibody) VH: QVQLQESGPGLVKPSQTLSLTCTVSGDSFTNDYYWNWIRQHPGKGLEWIGHIGYGGNINYNPSLKNRLSMSRDTSKNQFSLKLSSVTAADTAVYYCTRESFYDGYPFDYWGQGTLVTVSS VL: DIQMTQSPSSLSASVGDRVTITCRASQDIRNYLNWYQQKPGKAPKLLLYYTSRLHSGVPSRFSGSGSGTDYTLTISSLQPEDFATYYCQQGNSLPRTFGGGTKVEIK |  |  | 3.47 | 0.000674 | 194000 |  |  | 
2 | VH1_H40Phe + H44Lys VL3 (antibody, V domains shown) VH: QVQLQESGPGLVKPSQTLSLTCTVSGDSFTNDYYWNWIRQFPGKKLEWIGHIGYGGNINYNPSLKNRLSMSRDTSKNQFSLKLSSVTAADTAVYYCTRESFYDGYPFDYWGQGTLVTVSS VL: DIQMTQSPSSLSASVGDRVTITCRASQDIRNYLNWYQQKPGKAPKLLLYYTSRLHSGVPSRFSGSGSGTDYTLTISSLQPEDFATYYCQQGNSLPRTFGGGTKVEIK |  |  | 2.43 | 0.00056 | 231000 |  |  | 
3 | VH1 VL3_L42Gly (antibody, V domains shown) VH: QVQLQESGPGLVKPSQTLSLTCTVSGDSFTNDYYWNWIRQHPGKGLEWIGHIGYGGNINYNPSLKNRLSMSRDTSKNQFSLKLSSVTAADTAVYYCTRESFYDGYPFDYWGQGTLVTVSS VL: DIQMTQSPSSLSASVGDRVTITCRASQDIRNYLNWYQQKPGGAPKLLLYYTSRLHSGVPSRFSGSGSGTDYTLTISSLQPEDFATYYCQQGNSLPRTFGGGTKVEIK |  |  | 3 | 0.00064 | 213000 |  |  | 
4 | VH1_H43Ser + H44Lys VL3 (antibody, V domains shown) VH: QVQLQESGPGLVKPSQTLSLTCTVSGDSFTNDYYWNWIRQHPGSKLEWIGHIGYGGNINYNPSLKNRLSMSRDTSKNQFSLKLSSVTAADTAVYYCTRESFYDGYPFDYWGQGTLVTVSS VL: DIQMTQSPSSLSASVGDRVTITCRASQDIRNYLNWYQQKPGKAPKLLLYYTSRLHSGVPSRFSGSGSGTDYTLTISSLQPEDFATYYCQQGNSLPRTFGGGTKVEIK |  |  | 2.84 | 0.000596 | 210000 |  |  | 
5 | VH1_H44Lys VL3 (antibody, V domains shown) VH: QVQLQESGPGLVKPSQTLSLTCTVSGDSFTNDYYWNWIRQHPGKKLEWIGHIGYGGNINYNPSLKNRLSMSRDTSKNQFSLKLSSVTAADTAVYYCTRESFYDGYPFDYWGQGTLVTVSS VL: DIQMTQSPSSLSASVGDRVTITCRASQDIRNYLNWYQQKPGKAPKLLLYYTSRLHSGVPSRFSGSGSGTDYTLTISSLQPEDFATYYCQQGNSLPRTFGGGTKVEIK |  |  | 2.77 | 0.000592 | 213000 |  |  | 
6 | VH1_H43Ser VL3 (antibody, V domains shown) VH: QVQLQESGPGLVKPSQTLSLTCTVSGDSFTNDYYWNWIRQHPGSGLEWIGHIGYGGNINYNPSLKNRLSMSRDTSKNQFSLKLSSVTAADTAVYYCTRESFYDGYPFDYWGQGTLVTVSS VL: DIQMTQSPSSLSASVGDRVTITCRASQDIRNYLNWYQQKPGKAPKLLLYYTSRLHSGVPSRFSGSGSGTDYTLTISSLQPEDFATYYCQQGNSLPRTFGGGTKVEIK |  |  | 3.21 | 0.000679 | 211000 |  |  | 
7 | VH1 VL3_L43Thr (antibody, V domains shown) VH: QVQLQESGPGLVKPSQTLSLTCTVSGDSFTNDYYWNWIRQHPGKGLEWIGHIGYGGNINYNPSLKNRLSMSRDTSKNQFSLKLSSVTAADTAVYYCTRESFYDGYPFDYWGQGTLVTVSS VL: DIQMTQSPSSLSASVGDRVTITCRASQDIRNYLNWYQQKPGKTPKLLLYYTSRLHSGVPSRFSGSGSGTDYTLTISSLQPEDFATYYCQQGNSLPRTFGGGTKVEIK |  |  | 4.72 | 0.000882 | 187000 |  |  | 
8 | VH1_H40Phe VL3 (antibody, V domains shown, Humanized antibody; also called VH1_40Phe:VL3; Phe40) VH: QVQLQESGPGLVKPSQTLSLTCTVSGDSFTNDYYWNWIRQFPGKGLEWIGHIGYGGNINYNPSLKNRLSMSRDTSKNQFSLKLSSVTAADTAVYYCTRESFYDGYPFDYWGQGTLVTVSS VL: DIQMTQSPSSLSASVGDRVTITCRASQDIRNYLNWYQQKPGKAPKLLLYYTSRLHSGVPSRFSGSGSGTDYTLTISSLQPEDFATYYCQQGNSLPRTFGGGTKVEIK |  |  | 2.65 | 0.000576 | 217000 | no binding | no binding | 
9 | AX-202, a humanized IgG4 monoclonal anti-S100A4 antibody (antibody) heavy: not shown light: DIQMTQSPSSLSASVGDRVTITCRASQDIRNYLNWYQQKPGKALKLLLYYTSRLHSGVPSRFSGSGSGTDYTLTISSLQPEDFATYYCQQGNSLPRTFGGGTKVEIKRTVAAPSVFIFPPSDEQLKSGTASVVCLLNNFYPREAKVQWKVDNALQSGNSQESVTEQDSKDSTYSLSSTLTLSKADYEKHKVYACEVTHQGLSSPVTKSFNRGEC |  |  |  |  |  |  |  | ~3

Further binders by falling Kd (human S100A4 dimer), results first:

Row | FcγRIIa-H ADCP reporter; fold higher activation than AX-202 hIgG4, immune complex with S100A4 dimer [1] [fold] | FcγRIIa-H ADCP reporter; fold higher activation than AX-202 hIgG4, immune complex with S100A4 multimer [1] [fold] | Kd (human S100A4 dimer) [nM] | koff (human S100A4 dimer) [s⁻¹] | kon (human S100A4 dimer) [M⁻¹ s⁻¹] | binding result [2] | binding result [3] | FcγRIIa-H ADCP reporter; potency to induce FcγR activation against the same antibody with a human IgG1 scaffold [1] [fold lower] | Binder
10 |  |  | 2.38 | 0.000512 | 215000 |  |  |  | VH1_H43Ser VL3_L44Leu (antibody, V domains shown) VH: QVQLQESGPGLVKPSQTLSLTCTVSGDSFTNDYYWNWIRQHPGSGLEWIGHIGYGGNINYNPSLKNRLSMSRDTSKNQFSLKLSSVTAADTAVYYCTRESFYDGYPFDYWGQGTLVTVSS VL: DIQMTQSPSSLSASVGDRVTITCRASQDIRNYLNWYQQKPGKALKLLLYYTSRLHSGVPSRFSGSGSGTDYTLTISSLQPEDFATYYCQQGNSLPRTFGGGTKVEIK
11 |  |  | 2.25 | 0.000537 | 239000 | no binding | no binding |  | VH1 VL3_L44Leu (antibody, V domains shown, Humanized antibody; also called VH1:VL3_Leu44; Leu44) VH: QVQLQESGPGLVKPSQTLSLTCTVSGDSFTNDYYWNWIRQHPGKGLEWIGHIGYGGNINYNPSLKNRLSMSRDTSKNQFSLKLSSVTAADTAVYYCTRESFYDGYPFDYWGQGTLVTVSS VL: DIQMTQSPSSLSASVGDRVTITCRASQDIRNYLNWYQQKPGKALKLLLYYTSRLHSGVPSRFSGSGSGTDYTLTISSLQPEDFATYYCQQGNSLPRTFGGGTKVEIK
12 |  |  | 2.15 | 0.000507 | 236000 |  |  |  | VH1_H43Ser + H44Lys VL3_L44Leu (antibody, V domains shown) VH: QVQLQESGPGLVKPSQTLSLTCTVSGDSFTNDYYWNWIRQHPGSKLEWIGHIGYGGNINYNPSLKNRLSMSRDTSKNQFSLKLSSVTAADTAVYYCTRESFYDGYPFDYWGQGTLVTVSS VL: DIQMTQSPSSLSASVGDRVTITCRASQDIRNYLNWYQQKPGKALKLLLYYTSRLHSGVPSRFSGSGSGTDYTLTISSLQPEDFATYYCQQGNSLPRTFGGGTKVEIK
13 |  |  | 1.99 | 0.000523 | 263000 |  |  |  | VH1 VL3_L42Gly+L44Leu (antibody, V domains shown) VH: QVQLQESGPGLVKPSQTLSLTCTVSGDSFTNDYYWNWIRQHPGKGLEWIGHIGYGGNINYNPSLKNRLSMSRDTSKNQFSLKLSSVTAADTAVYYCTRESFYDGYPFDYWGQGTLVTVSS VL: DIQMTQSPSSLSASVGDRVTITCRASQDIRNYLNWYQQKPGGALKLLLYYTSRLHSGVPSRFSGSGSGTDYTLTISSLQPEDFATYYCQQGNSLPRTFGGGTKVEIK
14 | 3.23 | 2.87 | 1.65 | 0.000206 | 124000 |  |  |  | 6B12, mouse monoclonal IgG1 anti-S100A4 antibody (antibody, V domains shown, Mouse IgG1; also called 6B12 mIgG1; 6B12 IgG1) VH: DVQLQESGPGLVKPSQSLSLTCSVTGDSFTNDYYWNWIRQFPGSKLEWMGHIGYGGNINYNPSLKNRISITRDTSKNQFFLRLTSVTTEDTATYYCTRESFYDGYPFDYWGQGTLVTVSA VL: DIQMTQTTSSLSASLGDRVTISCRASQDIRNYLNWYQQRPGGTLKLLIYYTSRLHSGVPSRFSGSGSGTDYSLTISNLEQEDIATYFCQQGNSLPRTFGGGTKLEIK
15 |  |  | 1.46 | 0.000279 | 191000 |  |  |  | VH0 VL3 (antibody, V domains shown) VH: DVQLQESGPGLVKPSQSLSLTCSVTGDSFTNDYYWNWIRQFPGSKLEWMGHIGYGGNINYNPSLKNRISITRDTSKNQFFLRLTSVTTEDTATYYCTRESFYDGYPFDYWGQGTLVTVSA VL: DIQMTQSPSSLSASVGDRVTITCRASQDIRNYLNWYQQKPGKAPKLLLYYTSRLHSGVPSRFSGSGSGTDYTLTISSLQPEDFATYYCQQGNSLPRTFGGGTKVEIK
16 |  |  | 1.15 | 0.000361 | 313000 |  |  |  | VH1 VL0 (antibody, V domains shown) VH: QVQLQESGPGLVKPSQTLSLTCTVSGDSFTNDYYWNWIRQHPGKGLEWIGHIGYGGNINYNPSLKNRLSMSRDTSKNQFSLKLSSVTAADTAVYYCTRESFYDGYPFDYWGQGTLVTVSS VL: DIQMTQTTSSLSASLGDRVTISCRASQDIRNYLNWYQQRPGGTLKLLIYYTSRLHSGVPSRFSGSGSGTDYSLTISNLEQEDIATYFCQQGNSLPRTFGGGTKLEIK
17 |  |  | 0.958 | 0.000219 | 229000 |  |  |  | VH0 VL0: the VH and VL regions of 6B12 comprised in a humanized IgG4 isotype framework (antibody, V domains shown) VH: DVQLQESGPGLVKPSQSLSLTCSVTGDSFTNDYYWNWIRQFPGSKLEWMGHIGYGGNINYNPSLKNRISITRDTSKNQFFLRLTSVTTEDTATYYCTRESFYDGYPFDYWGQGTLVTVSA VL: DIQMTQTTSSLSASLGDRVTISCRASQDIRNYLNWYQQRPGGTLKLLIYYTSRLHSGVPSRFSGSGSGTDYSLTISNLEQEDIATYFCQQGNSLPRTFGGGTKLEIK
